Tests used:
[1] = test system: MD-2 tyrosine phosphorylation; experiment: LPS-induced MD-2 tyrosine phosphorylation in HEK293 cells (immunoprecipitation, anti-phosphotyrosine immunoblot); type: cell-based, human; details: pretreatment 1-2 h before LPS; HEK293 cells overexpressing TLR4 and MD-2
Procedure: 24 h later cells were left untreated (lanes 1 and 2) or stimulated with LPS (lanes 3-7). Flag-tagged proteins were immunoprecipitated with an anti-Flag Ab in cell lysates and analyzed by SDS-PAGE and immunoblotted with an anti-phosphotyrosine Ab (top panel), or an anti-Flag Ab (middle and lower panels). (B) HEK293 cells were transiently transfected with Flag-TLR4 and Flag-MD-2 (lanes 1-5). 24 hrs later, cells were pretreated for 2 hrs with herbimycin A at 0.5 μg/ml (lane 3) or 2.5 μg/ml (lane 4), or for 1 hr with 2 μM cytochalasin D (lane 5) prior to stimulation with LPS for 5 mins.
(A) HEK293 cells were transiently transfected with TLR4 and Myc-MD-2 (lanes 1-6). […] Myc-tagged proteins were immunoprecipitated with an anti-Myc Ab in cell lysates, and analyzed by SDS-PAGE and immunoblotted with an anti-phosphotyrosine Ab (top panel), or an anti-Myc Ab (lower panel). […] Cells were left untreated or stimulated with LPS for 6 hours and luciferase activity measured in cell lysates and expressed as fold induction relative to untreated cells.
Tyrosine phosphorylation of numerous proteins is induced upon stimulation with LPS and indeed the LPS receptor, TLR4, is itself tyrosine phosphorylated. […] Proteins were immunoprecipitated from cell extracts with an anti-Flag Ab and analyzed by immunoblotting with an Ab that detects proteins phosphorylated on phosphotyrosine residues. […]

TLR4 = target: T1, TLR4 (Homo sapiens, UniProt O00206); experiment: NF-κB luciferase reporter in HEK293 cells expressing TLR4, LPS stimulation; type: cell-based; details: for Ability to activate NF-κB upon LPS stimulation compared to wild-type MD-2: construct transfected into HEK293 TLR4/NF-κB reporter cells, LPS 6 h; for Decrease in NF-κB activity upon LPS stimulation: versus wild-type MD-2
T1 construct: expressed in transfected cells; host or cells: HEK293
Procedure: (A) HEK-293 cells stably transfected with TLR4 and a NF-κB reporter gene were treated with supernatants containing either MD-2 or MD-2s as described in the examples herein. Cells were left untreated or stimulated with LPS for 24 h. Mean relative stimulation of luciferase activity±S.D. for a representative experiment, each performed in triplicate, is shown. (B) HEK-293 cells stably transfected with TLR4 and a NF-κB reporter gene were transiently transfected with plasmids encoding for either MD-2, MD-2s or CD14 as shown. 24 h later, cells were left untreated or stimulated with LPS (250 ng/ml) for 6 h. Mean relative stimulation of luciferase activity±SD for a representative experiment, each performed in triplicate, is shown. (C) and (D) Supernatants were also collected and measured for IL-8 secretion.
(A) HEK293 cells were transiently transfected with plasmids encoding TLR4 and a NF-κB reporter gene in combination with MD-2 and MD-2s as indicated. 24 h later, cells were left untreated or incubated with LPS (250 ng/ml) for 5 h. Mean relative stimulation of luciferase activity±S.D. for a representative experiment from three separate experiments, each performed in triplicate, is shown. (B) HEK-293 cells stably transfected with TLR4 and a NF-κB reporter gene were treated with supernatants containing either MD-2 and MD-2s as depicted and left untreated or incubated with LPS for 24 h. Mean relative stimulation of luciferase activity±S.D. for a representative experiment from three separate experiments, each performed in triplicate, is shown.
HEK293 cells were transiently transfected with the expression vectors noted in combination with constructs encoding the NF-κB- and IL-8-luciferase reporter gene, and either the β-galactosidase gene or the phRL-TK report gene to normalize for transfection efficiency. In all cases, total DNA concentration was kept constant by supplementation with empty vector control. Following overnight incubation, cells were stimulated for 6 hours with 50 ng/ml LPS and then lysed, and luciferase activity was measured as described previously (Ohta et al. (2004) BIOCHEM BIOPHYS RES COMMUN 323, 1103-1108). Data are shown as mean±SD of three or more independent experiments and are reported as a percentage of LPS-stimulated NF-κB and IL-8 promoter activity, or relative luciferase activity.
The requirement for MD-2s in LPS mediated NF-κB activation was assessed. It has been shown that the soluble form of wild-type MD-2 confers LPS responsiveness to cells expressing TLR4; therefore, it was investigated if soluble MD-2s was also bioactive. Culture supernatants were obtained from HEK293 cells transiently expressing control vector, MD-2, or MD-2s, and incubated with HEK293 cells stably transfected with TLR4 and an NF-κB-dependent luciferase reporter gene.
MD-2s was tested to see if it needed to be transiently expressed in TLR4 reporter cells in order to mediate NF-κB activation following LPS stimulation. HEK293 cells stably transfected with TLR4 and an NF-κB-dependent luciferase reporter gene were transiently transfected with plasmids encoding CD14 in combination with either MD-2 or MD-2s, and subsequently treated with LPS.
HEK293 cells were transiently transfected with plasmids encoding CD14, TLR4, and wild-type MD-2 in conjunction with a plasmid encoding the NF-κB-dependent luciferase reporter gene in the presence or absence of a plasmid encoding MD-2s. […] Furthermore, we assessed the inhibitory role of soluble MD-2s following LPS stimulation. HEK293 cells stably transfected with TLR4 and an NF-κB-dependent luciferase reporter gene were incubated with supernatants obtained from HEK293 cells transiently expressing a constant amount of MD-2 with increasing concentrations of MD-2s.

T1 sequence (O00206 24-839): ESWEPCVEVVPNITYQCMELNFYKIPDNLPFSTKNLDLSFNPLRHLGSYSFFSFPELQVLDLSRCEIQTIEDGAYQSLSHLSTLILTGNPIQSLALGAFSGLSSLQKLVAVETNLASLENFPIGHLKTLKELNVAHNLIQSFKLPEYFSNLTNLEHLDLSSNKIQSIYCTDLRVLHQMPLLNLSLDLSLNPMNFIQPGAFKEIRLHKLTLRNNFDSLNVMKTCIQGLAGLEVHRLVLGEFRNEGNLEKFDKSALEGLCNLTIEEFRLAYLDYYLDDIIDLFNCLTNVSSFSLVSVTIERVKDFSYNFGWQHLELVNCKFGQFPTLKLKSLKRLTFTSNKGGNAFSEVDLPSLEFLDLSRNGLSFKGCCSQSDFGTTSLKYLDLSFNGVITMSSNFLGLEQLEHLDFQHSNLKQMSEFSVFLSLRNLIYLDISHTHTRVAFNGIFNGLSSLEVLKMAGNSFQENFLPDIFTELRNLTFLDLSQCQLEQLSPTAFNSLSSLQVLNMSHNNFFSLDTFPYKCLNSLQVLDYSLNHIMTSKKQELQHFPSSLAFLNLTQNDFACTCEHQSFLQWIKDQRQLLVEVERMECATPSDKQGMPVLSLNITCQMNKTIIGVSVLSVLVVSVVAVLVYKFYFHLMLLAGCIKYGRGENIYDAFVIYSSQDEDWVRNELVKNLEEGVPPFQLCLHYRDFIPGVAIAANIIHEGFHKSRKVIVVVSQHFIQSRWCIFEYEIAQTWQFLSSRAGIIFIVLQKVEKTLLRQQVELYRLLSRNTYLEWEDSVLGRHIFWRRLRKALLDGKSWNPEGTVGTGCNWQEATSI

Molecule | Effect on LPS-induced MD-2 tyrosine phosphorylation [1] | Ability to activate NF-κB upon LPS stimulation compared to wild-type MD-2 (TLR4) | Decrease in NF-κB activity upon LPS stimulation (TLR4) [%]
C=C1[C@@H](C)[C@H]2[C@H](Cc3ccccc3)NC(=O)[C@]23[C@H](OC(C)=O)/C=C/[C@@](C)(O)C(=O)[C@@H](C)C/C=C/[C@H]3[C@@H]1O [cytochalasin D] | significantly inhibited |  | 
CO[C@H]1[C@@H](OC)C[C@H](C)[C@@H](OC)C2=CC(=O)C=C(NC(=O)/C(C)=C/C=C\[C@H](OC)[C@@H](OC(N)=O)/C(C)=C/[C@@H]1C)C2=O [herbimycin A] | significantly inhibited |  | 
MD-2-Y22F: human MD-2 with tyrosine 22 mutated to phenylalanine (protein, Tyrosine to phenylalanine mutation at position 22 of human MD-2, human MD-2 with tyrosine 22 mutated to phenylalanine) MLPFLFFSTLFSSIFTEAQKQFWVCNSSDASISYTYCDKMQYPISINVNPCIELKRSKGLLHIFYIPRRDLKQLYFNLYITVNTMNLPKRKEVICRGSDDDYSFCRALKGETVNTTISFSFKGIKFSKGKYKCVVEAISGSPEEMLFCLEFVILHQPNSN |  | significantly less potent | 50
MD-2-Y131F: human MD-2 with tyrosine 131 mutated to phenylalanine (protein, Tyrosine to phenylalanine mutation at position 131 of human MD-2, human MD-2 with tyrosine 131 mutated to phenylalanine) MLPFLFFSTLFSSIFTEAQKQYWVCNSSDASISYTYCDKMQYPISINVNPCIELKRSKGLLHIFYIPRRDLKQLYFNLYITVNTMNLPKRKEVICRGSDDDYSFCRALKGETVNTTISFSFKGIKFSKGKFKCVVEAISGSPEEMLFCLEFVILHQPNSN |  | significantly less potent | 50
MD-2-Y22FY131F: human MD-2 double mutant, tyrosines 22 and 131 mutated to phenylalanine (protein, Tyrosine to phenylalanine mutation at position 22 and 131 of human MD-2, human MD-2 double mutant, tyrosines 22 and 131 mutated to phenylalanine) MLPFLFFSTLFSSIFTEAQKQFWVCNSSDASISYTYCDKMQYPISINVNPCIELKRSKGLLHIFYIPRRDLKQLYFNLYITVNTMNLPKRKEVICRGSDDDYSFCRALKGETVNTTISFSFKGIKFSKGKFKCVVEAISGSPEEMLFCLEFVILHQPNSN |  | do not activate NF-κB as strongly as wild-type MD-2 | 
